Test results: publication PMC3871816, “The Arabidopsis adaptor protein AP-3µ interacts with the G-protein β subunit AGB1 and is involved in abscisic acid regulation of germination and post-germination development” (Journal of Experimental Botany, 2013)

Molecular target: T1, GST-fused AP-3µ (Arabidopsis thaliana, UniProt F4I562 1-415)
T1 construct: AP-3µ of Arabidopsis thaliana; construction is in Supplementary Method S2, induction and purification in Supplementary Method S3; also called GST-AP-3µ; pGEX-5X-AP-3µ
T1 sequence (looked up): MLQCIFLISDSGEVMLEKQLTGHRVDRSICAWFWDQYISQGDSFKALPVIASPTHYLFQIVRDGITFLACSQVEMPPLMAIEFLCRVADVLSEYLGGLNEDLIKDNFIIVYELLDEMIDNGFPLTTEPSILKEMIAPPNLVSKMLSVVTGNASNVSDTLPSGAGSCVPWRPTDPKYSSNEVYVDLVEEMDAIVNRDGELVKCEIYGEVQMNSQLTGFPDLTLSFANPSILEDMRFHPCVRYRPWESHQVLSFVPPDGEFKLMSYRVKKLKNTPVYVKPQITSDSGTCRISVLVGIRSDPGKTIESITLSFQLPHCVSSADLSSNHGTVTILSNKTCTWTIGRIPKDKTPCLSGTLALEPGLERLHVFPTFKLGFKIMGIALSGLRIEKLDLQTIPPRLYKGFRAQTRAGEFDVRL
Experiment: pull-down; GST-AP-3µ or GST-AP-3µ^DN bound to Glutathione Sepharose 4 Fast Flow, washed with PBS, incubated with purified His-AGB1 at room temperature for 60 min; eluted with 20 mM reduced glutathione; immunoblot with anti-GST and HisProbe-HRP
Settings: both partners purified

binding result: binds
B1: Polyhistidine-tagged AGB1 (natural protein, Arabidopsis thaliana, UniProt P49177 1-377, looked up)
chain: MSVSELKERHAVATETVNNLRDQLRQRRLQLLDTDVARYSAAQGRTRVSFGATDLVCCRTLQGHTGKVYSLDWTPERNRIVSASQDGRLIVWNALTSQKTHAIKLPCAWVMTCAFSPNGQSVACGGLDSVCSIFSLSSTADKDGTVPVSRMLTGHRGYVSCCQYVPNEDAHLITSSGDQTCILWDVTTGLKTSVFGGEFQSGHTADVLSVSISGSNPNWFISGSCDSTARLWDTRAASRAVRTFHGHEGDVNTVKFFPDGYRFGTGSDDGTCRLYDIRTGHQLQVYQPHGDGENGPVTSIAFSVSGRLLFAGYASNNTCYVWDTLLGEVVLDLGLQQDSHRNRISCLGLSADGSALCTGSWDSNLKIWAFGGHRRVI
notes: AGB1, G-protein β subunit of Arabidopsis thaliana; His-AGG1 is named in the same sentence but in no result; also called His-AGB1; His-tagged AGB1; source: E. coli, purified
